In the assay the target is RELMβ bait: RELMβ fused to rat CD4d3+4, BirA recognition site and 6X-histidine tag (mouse) (UniProt Q99P86). The experiment in a line: SPR.

Some results are limits rather than exact numbers.

As a reminder, the Kd is the concentration at which binding is half-saturated. Low readings indicate tighter binding, high ones weaker binding.

UniProt Q99P86, sequence (Q99P86 24-105): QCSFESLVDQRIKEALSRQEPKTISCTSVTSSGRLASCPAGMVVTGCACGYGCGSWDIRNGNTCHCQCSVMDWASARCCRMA

On to “HpBoRB, C-terminal 6X-His tagged, from the pSecTAG2A expression vector (natural protein)”, for which the Kd was < 0.1 nM.
